In paper PMC9372576 one finds relative fluorescence (rf) data, which are given here for two substances.

Assay [1] concerns the target GvpA fused to NGFP or CGFP (Halobacterium salinarum) (UniProt P08958). In words: split reporter (BiFC, NanoBiT); split-GFP of A/A with untagged GvpC, GvpN and GvpO co-produced under the P2 promoter (A/A + CNO).
Assay [2] shares this target. In words: split reporter (BiFC, NanoBiT); split-GFP (NGFP and CGFP of salt-stable mGFP2) in Hfx. volcanii transformants, 24 h 37 °C then 24 h 30 °C; relative fluorescence (rf) against the wild type; the highest of eight tag combinations is given.

GvpA fused to NGFP or CGFP (Halobacterium salinarum), sequence (P08958 whole entry, the tested form may be a part): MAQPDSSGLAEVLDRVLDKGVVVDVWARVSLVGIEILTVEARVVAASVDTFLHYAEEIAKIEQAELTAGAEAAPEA

As for “GvpA fused to NGFP or CGFP (from UniProt P08958 1-76) (natural protein)”, the relative fluorescence (rf) in assay [1] is 5.12 LAU/mm^2; in assay [2], below 2 LAU/mm^2. Turning to “GvpC fused to NGFP or CGFP (from UniProt P24574 1-382) (natural protein)”, the relative fluorescence (rf) in assay [2] is below 2 LAU/mm^2.
